1 molecule from CN112500484A (MEDX TRANSLATIONAL MEDICINE CO LTD, dated 2021) can be followed below.

The test has as its target T1, 人TROP2蛋白C端合成多肽 Arg299-Leu323, 裸肽 (not coupled to KLH) (human).
T1 construct: also called 抗原多肽
T1 peptide: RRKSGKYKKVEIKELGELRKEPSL
Briefly: indirect ELISA screen of transiently expressed antibodies.

B1: MJ1-1抗体 (rabbit anti-human TROP2 monoclonal antibody) (antibody, V domains shown)
VH: QSVEESGGRLVTPGTPLTLTCTVSGIDLSSDAIFWVRQAPGEGLKYIGFIHPAGVTYYAAWARGRFTISRTSTTVDLKMTRLTTEDTATYFCGRYFGYASIDIWGPGTLVTVSS
VL: AQVLTQTPSSTSAAVGGTVTINCQSSQNVYDKNQLSWFQQKPGQPPKLLIYKASTLASGVPSRFSGSGSGTQFTLTISGVECDDAATYYCAGVYTGNIYTFGGGTEVVVKG
notes: also called MJ1-1单克隆抗体; 抗TROP2抗体
For B1, the binding result is listed as “binds”.
